Patent publication US20150030596A1 (SAMSUNG ELECTRONICS, published 2015)

B1: bispecific chimeric protein ME-19 (L3-1Y-IgG2 heavy chain-(G4S)2-anti-EGFR DARPin-01) (bispecific antibody)
heavy: EVQLVESGGGLVQPGGSLRLSCAASGFTFTDYYMSWVRQAPGKGLEWLGFIRNKANGYTTEYSASVKGRFTISRDNSKNTLYLQMNSLRAEDTAVYYCARDNWFAYWGQGTLVTVSSASTKGPSVFPLAPCSRSTSESTAALGCLVKDYFPEPVTVSWNSGALTSGVHTFPAVLQSSGLYSLSSVVTVPSSNFGTQTYTCNVDHKPSNTKVDKTVERKCCVECPPCPAPPVAGPSVFLFPPKPKDTLMISRTPEVTCVVVDVSHEDPEVQFNWYVDGVEVHNAKTKPREEQFNSTFRVVSVLTVVHQDWLNGKEYKCKVSNKGLPAPIEKTISKTKGQPREPQVYTLPPSREEMTKNQVSLTCLVKGFYPSDIAVEWESNGQPENNYKTTPPMLDSDGSFFLYSKLTVDKSRWQQGNVFSCSVMHEALHNHYTQKSLSLSPGKGGGGSGGGGSDLGKKLLEAARAGQDDEVRILMANGADVNADDTWGWTPLHLAAYQGHLEIVEVLLKNGADVNAYDYIGWTPLHLAADGHLEIVEVLLKNGADVNASDYIGDTPLHLAAHNGHLEIVEVLLKHGADVNAQDKFGKTAFDISIDNGNEDLAEILQ
light: DIQMTQSPSSLSASVGDRVTITCKSSQSLLASGNQNNYLAWYQQKPGKAPKMLIIWASTRVSGVPSRFSGSGSGTDFTLTISSLQPEDFATYYCQQSYSRPYTFGQGTKVEIKRTVAAPSVFIFPPSDEQLKSGTASVVCLLNNFYPREAKVQWKVDNALQSGNSQESVTEQDSKDSTYSLSSTLTLSKADYEKHKVYACEVTHQGLSSPVTKSFNRGEC
notes: The DARPin is fused to the C-terminus of each heavy chain; also called anti-c-Met/anti-EGFR DARPin bispecific chimeric protein
B2: bispecific chimeric protein ME-28 (L3-1Y-IgG2 heavy chain-(G4S)2-anti-EGFR DARPin-01-(G4S)2-anti-EGFR DARPin-69) (bispecific antibody)
heavy: EVQLVESGGGLVQPGGSLRLSCAASGFTFTDYYMSWVRQAPGKGLEWLGFIRNKANGYTTEYSASVKGRFTISRDNSKNTLYLQMNSLRAEDTAVYYCARDNWFAYWGQGTLVTVSSASTKGPSVFPLAPCSRSTSESTAALGCLVKDYFPEPVTVSWNSGALTSGVHTFPAVLQSSGLYSLSSVVTVPSSNFGTQTYTCNVDHKPSNTKVDKTVERKCCVECPPCPAPPVAGPSVFLFPPKPKDTLMISRTPEVTCVVVDVSHEDPEVQFNWYVDGVEVHNAKTKPREEQFNSTFRVVSVLTVVHQDWLNGKEYKCKVSNKGLPAPIEKTISKTKGQPREPQVYTLPPSREEMTKNQVSLTCLVKGFYPSDIAVEWESNGQPENNYKTTPPMLDSDGSFFLYSKLTVDKSRWQQGNVFSCSVMHEALHNHYTQKSLSLSPGKGGGGSGGGGSDLGKKLLEAARAGQDDEVRILMANGADVNADDTWGWTPLHLAAYQGHLEIVEVLLKNGADVNAYDYIGWTPLHLAADGHLEIVEVLLKNGADVNASDYIGDTPLHLAAHNGHLEIVEVLLKHGADVNAQDKFGKTAFDISIDNGNEDLAEILQGGGGSGGGGSDLGKKLLEAARAGQDDEVRILMANGADVNADDNAGRTPLHLAANFGHLEIVEVLLKNGADVNAKGHHCNTPLHLAAWAGHLEIVEVLLKYGADVNADDDEGYTPLHLAADIGDLEIVEVLLKYGADVNAWDMYGRTPLHLAASAGHLEIVEVLLKYGADVNAQDKFGKTAFDISIDNGNEDLAEILQ
light: B1 light
notes: Two DARPins are linked in tandem to each heavy chain C-terminus of the IgG; also called anti-c-Met/anti-EGFR (E01+E69) DARPins bispecific chimeric protein

How the values were obtained:
[1] = target: T1, EGFR-Fc (#344-ER, R&D Systems) (UniProt P00533 25-645); experiment: SPR (Biacore T100); ME-19 captured on human Fab binder on a CM5 chip, EGFR-Fc as analyte
T1 construct: Bought reagent; also called EGFR (R&D systems); EGFR (#344-ER, R&D Systems); not shown: Fc part of the bought fusion protein; not described
Procedure: Human Fab binder (GE Healthcare) was immobilized on the surface of CM5 chip (#BR-1005-30, GE) according to the manufacturer's manual. […] 10 mM Glycine-HCl (pH 1.5) solution was added hereto, to regenerate the surface. To determine the affinity, the obtained data were fitted using BIA evaluation software (GE Healthcare, Biacore T100 evaluation software).

[2] = target: T1, EGFR-Fc (#344-ER, R&D Systems); experiment: competitive ELISA: plate coated with EGFR (#344-ER, 0.25 ug/well), 20 ng/ml biotinylated EGF mixed with serially diluted ME-19, streptavidin/HRP detection, OD405
Procedure: 96-well immunoplate (Nunc) was coated with EGFR (#344-ER, R&D Systems) in the amount of 0.25 μg/well. […] The resulted reacting product was washed with PBS containing 0.05% (w/v) of Tween 20. HRP (Horse radish peroxidase) conjugated […] (#21140, Thermo scientific) was added to the each well and reacted at room temperature for 1 hour.

[3] = target: T1, EGFR-Fc (#344-ER, R&D Systems); experiment: SPR (Biacore T100); ME-28 captured on human Fab binder on a CM5 chip, EGFR-Fc as analyte
Procedure: The binding affinity of bispecific chimeric protein ME-28 to EGFR was examined using Biacore T100 (GE). Human Fab binder (GE Healthcare) was immobilized on the surface of CM5 chip (#BR-1005-30, GE) according to the manufacturer's manual. About 90˜120 RU of the bispecific chimeric protein ME-28 was captured, and various concentrations of EGFR-Fc (#344-ER, R&D Systems) were added to the captured bispecific chimeric protein. 10 mM Glycine-HCl (pH 1.5) solution was added hereto, to regenerate the surface. To determine the affinity, the obtained data were fitted using BIA evaluation software (GE Healthcare, Biacore T100 evaluation software).

| Binder | Kd [1] | koff [1] | kon [1] | IC50 (read off the curve) [2] | Kd [3] | koff [3] | kon [3] |
| --- | --- | --- | --- | --- | --- | --- | --- |
| B1 | 350 pM | 6.4e-05 s⁻¹ | 180000 M⁻¹ s⁻¹ | ~0.5 µg/mL |  |  |  |
| B2 |  |  |  |  | < 10 pM | < 3.4e-05 s⁻¹ | 110000 M⁻¹ s⁻¹ |
